{
  "source": "paper PMC4992835",
  "about": "“Antibodies elicited by the first non-viral prophylactic cancer vaccine show tumor-specificity and immunotherapeutic potential” (Scientific Reports, 2016)",
  "binders": {"B1": {"name": "H16K6 (antibody, V domains shown)", "VH": "QVQLVESGGGLVKPGGSLRLSCAASGFTFSDYYMSWIRQAPGKGLEWVSYISSSGTTKYYADSVKGRFTISRDNAKNSLYLQMNSLRAEDTAVYYCVRENLGYCSGGSCFYYYYMDVWGKGTTVTVSS", "VL": "not shown"}, "B2": {"name": "H14K6 whole IgG (antibody, V domains shown)", "VH": "B1 VH with T56S, K58I, V97A, N100R, L101I, F110Y", "VL": "not shown"}, "B3": {"name": "H14K6 Fab (Fab, V domains shown)", "VH": "B1 VH with T56S, K58I, V97A, N100R, L101I, F110Y", "VL": "not shown"}, "B4": {"name": "H19K15 Fab (Fab, V domains shown)", "VH": "B1 VH with T28I, N100D, L101I", "VL": "not shown"}, "B5": {"name": "H19K15 whole IgG (antibody, V domains shown)", "VH": "B1 VH with T28I, N100D, L101I", "VL": "not shown"}, "B6": {"name": "H4K10 Fab (Fab, V domains shown)", "VH": "QLQLQESGPGLVKPSETLSLTCTVSGGSISSSRYYWGWIRQPPGKGLEWIGSIYYSGSTYYNPSLKSRVTISVDTSNNQFSLKLTSVTAADTAVYYCARLPESGGYSGWFDPWGQGTLVTVSS", "VL": "not shown"}, "B7": {"name": "H4K11 Fab (Fab, V domains shown)", "VH": "B6 VH", "VL": "not shown"}},
  "key": {"[1]": {"molecular_target": "T1, MUC1 100mer vaccine peptide (Homo sapiens, UniProt P15941)"}, "MUC1 VNTR 25mer peptide": {"molecular_target": "T2, MUC1 VNTR 25mer peptide (Homo sapiens)", "T2 construct": "MUC1 VNTR, human; one repeat plus 5 amino acids from the next repeat; also called 25mer MUC1 peptide", "T2 sequence (peptide, as listed by the source)": "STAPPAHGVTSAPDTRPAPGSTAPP", "experiment": "SPR; Biacore T200; whole IgG captured on a CM5 chip coated with anti-human IgG capture antibody; serially diluted 25mer peptide as analyte; 1:1 model", "settings": "both partners purified"}, "[2]": {"molecular_target": "T1, MUC1 100mer vaccine peptide", "experiment": "SPR; Biacore T200; Fab captured at low density (RU < 50) on a CM5 chip coated with anti-human Fab capture kit; serially diluted 100mer peptide as analyte; kinetic analysis, 1:1 model", "settings": "both partners purified"}, "[3]": {"molecular_target": "T1, MUC1 100mer vaccine peptide", "experiment": "SPR; Biacore T200; Fab captured at low density (RU < 50) on a CM5 chip coated with anti-human Fab capture kit; serially diluted 100mer peptide as analyte; 'Steady State' in Table 1 in place of rate constants", "settings": "both partners purified"}},
  "note": "Residue numbers refer to the chain shown, from its start.",
  "data": [
    {"binder": "B1", "values": [
      {"measurement": "binding result", "setting": "[1]", "value": "binds"}
    ]},
    {"binder": "B2", "values": [
      {"measurement": "Kd", "setting": "MUC1 VNTR 25mer peptide", "value": 0.0272, "unit": "µM"},
      {"measurement": "koff", "setting": "MUC1 VNTR 25mer peptide", "value": 0.00123, "unit": "s⁻¹"},
      {"measurement": "kon", "setting": "MUC1 VNTR 25mer peptide", "value": 45300, "unit": "M⁻¹ s⁻¹"}
    ]},
    {"binder": "B3", "values": [
      {"measurement": "Kd", "setting": "[2]", "value": 0.00013, "unit": "µM"},
      {"measurement": "koff", "setting": "[2]", "value": 0.000346, "unit": "s⁻¹"},
      {"measurement": "kon", "setting": "[2]", "value": "2.67e+06", "unit": "M⁻¹ s⁻¹"}
    ]},
    {"binder": "B4", "values": [
      {"measurement": "Kd", "setting": "[2]", "value": 0.000555, "unit": "µM"},
      {"measurement": "koff", "setting": "[2]", "value": 0.000453, "unit": "s⁻¹"},
      {"measurement": "kon", "setting": "[2]", "value": 817000, "unit": "M⁻¹ s⁻¹"}
    ]},
    {"binder": "B5", "values": [
      {"measurement": "kon", "setting": "MUC1 VNTR 25mer peptide", "value": 8600, "unit": "M⁻¹ s⁻¹"}
    ]},
    {"binder": "B6", "values": [
      {"measurement": "Kd", "setting": "[3]", "value": 5.31, "unit": "µM"}
    ]},
    {"binder": "B7", "values": [
      {"measurement": "Kd", "setting": "[3]", "value": 15.7, "unit": "µM"}
    ]}
  ]
}
